What was measured:
[1] = biological target: T1, CD16A (FcγRIIIA) on primary human NK cells (human, UniProt P08637 17-254); experiment: flow cytometry, DyLight650-labelled antibody on fresh human NK cells (FIG. 40A)
T1 construct: whole, on cells
Experimental: Fresh prepared human NK cells were pre-incubated for 1-hours at 37 C with and without 10 mg/mL of SCIG (Hizentra), then stained with DyLight650 labeled anti-AFM26/CD16a at indicted concentrations. […] NK (FIG. 40D) and MM.1S cells (FIG. 40C) were preincubated separately in 50% human autologous serum for 2 hours prior to assay setup. NK cells were co-cultured with MM.1S tumor cell line at an approximate E:T ration of 5, and exposed to 10-fold serial diluted test articles from 0.1-100 nM for approximately 20 hours at 37 C with 5% CO₂. Antibody staining with CD138 and CD56 followed by FACS were used to monitor cytotoxicity of MM.1S target cells and NK survival. Data were analyzed with the software programs FlowJo and GraphPad Prism 6.

[2] = biological target: T2, biotinylated, recombinant human CD16A(48R-158V) fused to human IgG1 Fc portion (human, UniProt P08637 17-208, biotinylated (site not stated)); experiment: ELISA, coated construct, soluble CD16A(48R-158V)-Fc
T2 construct: also called CD16A soluble antigen; recombinant human CD16A soluble antigen; not shown: human IgG1 Fc portion

[3] = biological target: T1, CD16A (FcγRIIIA) on primary human NK …; experiment: flow cytometry, primary human NK cells, 37 C, with 10 mg/mL polyclonal human IgG as competitor
[4] = biological target: T3, human CD16A-158V ECD fused to monomeric Fc (human, UniProt P08637 17-208); experiment: ELISA, CD16 antigen coated at 0.5 µg/mL (10 nM), with 8-10 nM 3G8 IgG as competitor
T3 construct: extracellular domain; also called CD16A-158V ECD-monomeric Fc-fusion antigen; CD16A-158V ECD-Fc fusion antigen; not shown: monomeric Fc (Ying et al. 2012), silent; Avi-tag in the SPR form

[5] = biological target: T4, Cynomolgus CD16A ECD fused to monomeric Fc (cynomolgus, UniProt Q8SPW2 17-208, biotinylated on the Avi-tag in the SPR form); experiment: ELISA, antigen coated at 1.5 µg/mL, His-tagged scFv titrated
T4 construct: also called biotinylated mono-Fc(silent)-Avi-tagged cynomolgus CD16; not shown: monomeric Fc fusion partner (Avi-tag in the SPR form)

[6] = biological target: T3, human CD16A-158V ECD fused to monomeric …; experiment: as above
[7] = biological target: T5, human CD16A-158F ECD fused to monomeric Fc (human, UniProt P08637 17-208, biotinylated on the Avi-tag in the SPR form); experiment: as above
T5 construct: extracellular domain; not shown: monomeric Fc (Ying et al. 2012), silent; Avi-tag in the SPR form

[8] = biological target: T3, human CD16A-158V ECD fused to monomeric …; experiment: SPR, Biacore T200, receptor captured, 1:1 model
[9] = biological target: T3, human CD16A-158V ECD fused to monomeric …; experiment: ELISA, CD16 antigen coated at 0.5 µg/mL (10 nM), without competition
[10] = biological target: T1, CD16A (FcγRIIIA) on primary human NK …; experiment: flow cytometry, primary human NK cells, 37 C, buffer

T1 sequence (P08637 17-254): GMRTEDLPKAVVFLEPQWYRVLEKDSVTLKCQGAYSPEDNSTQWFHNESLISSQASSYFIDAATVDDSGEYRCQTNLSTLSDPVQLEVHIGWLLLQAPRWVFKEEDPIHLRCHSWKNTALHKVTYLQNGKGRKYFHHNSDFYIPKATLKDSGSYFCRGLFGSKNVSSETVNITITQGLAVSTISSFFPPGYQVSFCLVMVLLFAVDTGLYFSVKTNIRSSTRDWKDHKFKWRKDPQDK
T3 sequence (P08637 17-208 F176V): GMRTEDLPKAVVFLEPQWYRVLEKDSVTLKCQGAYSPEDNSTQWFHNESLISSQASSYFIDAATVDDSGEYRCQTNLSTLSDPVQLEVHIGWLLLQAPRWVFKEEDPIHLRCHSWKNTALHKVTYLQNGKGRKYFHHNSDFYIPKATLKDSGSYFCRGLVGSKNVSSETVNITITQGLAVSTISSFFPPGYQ
T5 sequence (P08637 17-208): as the sequence (P08637 17-208 F176V) above, with V160F counted along it
T4 sequence (Q8SPW2 17-208): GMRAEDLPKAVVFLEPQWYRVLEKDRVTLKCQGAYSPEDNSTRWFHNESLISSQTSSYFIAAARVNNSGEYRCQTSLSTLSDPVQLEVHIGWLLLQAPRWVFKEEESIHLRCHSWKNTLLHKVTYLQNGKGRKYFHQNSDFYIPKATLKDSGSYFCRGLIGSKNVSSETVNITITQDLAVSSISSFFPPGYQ
T2 sequence (P08637 17-208 L66R/F176V limits assumed): as the sequence (P08637 17-208 F176V) above, with L50R counted along it

B1: CD16A/BCMA antibody I (bispecific antibody, human IgG1, kappa)
heavy: EVQLLESGGGLVQPGGSLRLSCAASGFTFSNYDMAWVRQAPGKGLEWVSSISTRGDITSYRDSVKGRFTISRDNSKNTLYLQMNSLRAEDTAVYYCARQDYYTDYMGFAYWGQGTLVTVSSASTKGPSVFPLAPSSKSTSGGTAALGCLVKDYFPEPVTVSWNSGALTSGVHTFPAVLQSSGLYSLSSVVTVPSSSLGTQTYICNVNHKPSNTKVDKKVEPKSCDKTHTCPPCPAPEFEGGPSVFLFPPKPKDTLMISRTPEVTCVVVAVSHEDPEVKFNWYVDGVEVHNAKTKPREEQYNSTYRVVSVLTVLHQDWLNGKEYKCKVSNKALPAPIEKTISKAKGQPREPQVYTLPPSREEMTKNQVSLTCLVKGFYPSDIAVEWESNGQPENNYKTTPPVLDSDGSFFLYSKLTVDKSRWQQGNVFSCSVMHEALHNHYTQKSLSLSPGGGGGSGGGGSGGGGSGGGGSGGGGSGGGGSSYVLTQPSSVSVAPGQTATISCGGHNIGSKNVHWYQQRPGQSPVLVIYQDNKRPSGIPERFSGSNSGNTATLTISGTQAMDEADYYCQVWDNYSVLFGGGTKLTVLGGSGGSGGSGGSGGSGGSGGSQVQLVQSGAEVKKPGESLKVSCKASGYTFTSYYMHWVRQAPGQGLEWMGAIEPMYGSTSYAQKFQGRVTMTRDTSTSTVYMELSSLRSEDTAVYYCARGSAYYYDFADYWGQGTLVTVSS
light: AIQMTQSPSSLSASVGDRVTITCRASEDIYNGLAWYQQKPGKAPKLLIYGASSLQDGVPSRFSGSGSGTEFTLTISSLQPEDEATYYCAGPHKYPLTFGGGTKVEIKRTVAAPSVFIFPPSDEQLKSGTASVVCLLNNFYPREAKVQWKVDNALQSGNSQESVTEQDSKDSTYSLSSTLTLSKADYEKHKVYACEVTHQGLSSPVTKSFNRGEC
notes: also called BCMA/CD16A antibody I; anti-BCMA/CD16a
binding result [1]: binds

B2: scDb-Tribody_01 (other)
VL: SYVLTQPSSVSVAPGQTATISCGGHNIGSKNVHWYQQRPGQSPVLVIYQDNKRPSGIPERFSGSNSGNTATLTISGTQAMDEADYYCQVWDNYSVLFGGGTKLTVL
VH: QVQLVQSGAEVKKPGESLKVSCKASGYTFTSYYMHWVRQAPGQGLEWMGIINPSGGSTSYAQKFQGRVTMTRDTSTSTVYMELSSLRSEDTAVYYCARGSAYYYDFADYWGQGTLVTVSS
notes: Trispecific; LSIV21 scDb VL-VL-VH-VH; connector1 NO:20, no hinge, no Fc, connector2 NO:20
EC50 [2]: 0.65 nM

B3: scFv 3G8 (scFv containing the variable domains of the CD16 pan-specific antibody 3G8) (scFv)
chain 1: QVTLKESGPGILQPSQTLSLTCSFSGFSLRTSGMGVGWIRQPSGKGLEWLAHIWWDDDKRYNPALKSRLTISKDTSSNQVFLKIASVDTADTATYYCAQINPAWFAYWGQGTLVTVS
chain 2: DIVLTQSPASLAVSLGQRATISCKASQSVDFDGDSFMNWYQQKPGQPPKLLIYTTSNLESGIPARFSASGSGTDFTLNIHPVEEEDTATYYCQQSNEDPYTFGGGTKLELK
Kd [3]: 64.6 nM
EC50 [4]: 19.7 nM
EC50 [5]: 0.87 nM
EC50 [6]: 0.33 nM
EC50 [7]: 0.58 nM
Kd [8]: 8.6 nM
EC50 [9]: 0.9 nM
Kd [10]: 3.8 nM

From patent US20200109202A1 (published 2020)
